Measured values reported in PMC9241078.

Experiments:
Assay in all cases: potentiometry
Glu117 = conditions: 298 K, 0.1 M KCl, none (peptide dissolved in 4 x 10^-3 M HCl)
Cterm120 = conditions: 298 K; 0.1 M KCl; none (peptide dissolved in 4 x 10^-3 M HCl); metal-free peptide. Ligand concentration is 0.5 mM in Methods, but the Table 3 footnote says 0.001 M.
[1] = target: Cterm135 (UniProt position 135, AGEDAI-----); conditions: 298 K; 0.1 M KCl; none (peptide dissolved in 4 x 10^-3 M HCl); metal-free peptide. Ligand concentration is 0.5 mM in Methods, but the Table 3 footnote says 0.001 M.
[2] = target: Glu132 (UniProt position 132, …--); conditions: 298 K; 0.1 M KCl; none (peptide dissolved in 4 x 10^-3 M HCl); metal-free peptide. Ligand concentration is 0.5 mM in Methods, but the Table 3 footnote says 0.001 M.
[3] = metal-free peptide. Ligand concentration is 0.5 mM in Methods, but the Table 3 footnote says 0.001 M.

Row | Protein | pKa (Glu117; Ni(II)-bound, metal to ligand 1:1 (NiH4L to NiH3L step)) | pKa (Glu117; [3]) | pKa (Cterm120) | pKa [1] | pKa [2]
1 | DAHLAHIVVDAIAHASEDRR [BigR4 alpha5 domain peptide mutant H102A (L2) (Mycobacterium smegmatis; H102A)] | 5.61 | 6.10 | 3.35 |  | 
2 | DHHLAHIVVDAIAHASEDRR |  | 5.80 | 3.23 |  | 
3 | DHHLAAIVVDAIAHASEDRR [BigR4 alpha5 domain peptide mutant H106A (L3) (Mycobacterium smegmatis; H106A)] |  | 5,91 | 2,97 |  | 
4 | DHHLAHIVLDAVAHAGEDAI |  |  |  | 3.16 | 5.74
